From paper PMC12617493 (Science Advances, 2025)

B1: Osh6 (natural protein, S. cerevisiae, UniProt Q02201 1-448, looked up)
chain: MGSKKLTVGSDSHRLSKSSFSSNKSSHSATKDQPIDTDDIDEDDESGHNIILNIISQLRPGCDLTRITLPTFILEKKSMLERVTNQLQFPEFLLQAHSEKDPLKRFLYVMKWYLAGWHIAPKAVKKPLNPVLGEYFTAYWDLPNKQQAYYISEQTSHHPPECAYFYMIPESSIRVDGVVIPKSRFLGNSSAAMMDGSTVLQFLDIKDGNGKPEKYVLTQPNVYVRGILFGKMRIELGDHMIIKSPNFQADIEFKTKGYVFGTYDAIEGTVKDYDGNAYYEISGKWNDVMYLKDLKQPRSSPKVFLDTHKESPLRPKVRPLSEQGEYESRKLWKKVTDALAVRNHPVATEEKFQIEDHQRQLAKKRIEDGVEFHPKLFRRSKPGEDLDYCIYKNIPVDEDPEKQIRSILQIAPILPGQQFTDKFFIPAFEKIKSQKKMIENEKQNPAKQ
B4: CIst2[590–946] (domain or fragment, S. cerevisiae)
chain: CSSHDDVANGIVPKHVVNVQNPPKQEVFEKIPSPEFNSNNEKELVQRKGSANEKLHQELGEKQPASSANGYEAHAATHANNDPSSLSSASSPSLSSSSSSSKTGVVKAVDNDTAGSAGKKPLATESTEKRNSLVKVPTVGSYGVAGATLPETIPTSKNYYLRFDEDGKSIRDAKSSAESSNATNNNTLGTESKLLPDGDAVDALSRKIDQIPKIAVTGGENNENTQAKDDAATKTPLIKDANIKPVVNAAVNDNQSKVSVATEQTKKTEVSTKNGPSRSISTKETKDSARPSNNNTTTTTTTDATQPHHHHHHHRHRDAGVKNVTNNSKTTESSSSSSAAKEKPKHKKGLLHKLKKKL
modifications: N-terminal cysteine covalently attached to MPB-PE of liposomes (in the experiments with MPB-PE–containing liposomes)
notes: extra N-terminal cysteine; With PM-like liposomes it is held by its C-terminal polybasic motif, not covalently; also called Ist2 IDR with an extra N-terminal cysteine; source: E. coli BL21-GOLD(DE3), purified (Glutathione Sepharose 4B, thrombin cleavage, Sephacryl S-200 HR); not shown: GST, N-terminal, cleaved

Columns and labels:
CIst2[590–946] [1] = target: B4
CIst2[590–946] [2] = target: B4; assay: cell-based or functional assay
Osh6(H157A/H158A) = target: T1, Osh6(H157A/H158A) (S. cerevisiae, UniProt Q02201 1-448, H157A | H158A); assay: pull-down; GST constructs (2.5 μM) immobilised on Glutathione Sepharose 4B beads; Osh6, its mutants, Osh4, ORD^Osh3 or ORD^ORP8 added at 2.5 μM; 50 mM tris pH 7.4, 120 mM NaCl, 1 mM MgCl2, 1% TX-100, 1 mM DTT, 10% glycerol; 25°C, 1 hour; bound fraction by SDS-PAGE; conditions: both partners purified
T1 construct: also called Osh6(HH/AA)
T1 sequence (looked up): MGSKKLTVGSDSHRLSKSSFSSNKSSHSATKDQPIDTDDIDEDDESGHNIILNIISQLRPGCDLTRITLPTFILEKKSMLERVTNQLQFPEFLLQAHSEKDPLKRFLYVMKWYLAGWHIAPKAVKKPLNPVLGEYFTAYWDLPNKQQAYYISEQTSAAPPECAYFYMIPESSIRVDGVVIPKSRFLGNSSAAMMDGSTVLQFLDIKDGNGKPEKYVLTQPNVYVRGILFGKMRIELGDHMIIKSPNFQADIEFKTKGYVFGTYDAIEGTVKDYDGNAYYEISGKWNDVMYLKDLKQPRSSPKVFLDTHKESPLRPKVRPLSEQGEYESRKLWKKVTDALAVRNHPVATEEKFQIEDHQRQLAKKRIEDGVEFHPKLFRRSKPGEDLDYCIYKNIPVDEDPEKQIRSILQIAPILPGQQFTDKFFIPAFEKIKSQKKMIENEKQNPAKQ

Osh6 = target: B1; assay: liposome flotation assay; Osh6 (0.75 μM) with or without an equivalent amount of CIst2[590–946] and PM-like liposomes POPC/POPS/PI(4,5)P2/NBD-PE (65:30:5:0.1); sucrose gradient, top fraction by SDS-PAGE; conditions: both partners purified

ORD^ORP8 (H514A/H515A) (domain or fragment)
Ist2-dependent (ER→PM)/(ER→O) NBD-PS transfer rate ratio R (Ist2), three liposome populations, LER and LPM connected by CIst2[590–946], FRET, 30°C (CIst2[590–946] [1]): 1

B1
Ist2-dependent (ER→PM)/(ER→O) NBD-PS transfer rate ratio R_(Ist2), three liposome populations, LER and LPM connected by CIst2[590–946], FRET, 30°C (CIst2[590–946] [2]): 7.6

B2: Osh6(HH/AA)-3M (natural protein, S. cerevisiae, UniProt Q02201 1-448, looked up)
chain: MGSKKLTVGSDSHRLSKSSFSSNKSSHSATKDQPIDTDDIDEDDESGHNIILNIISQLRPGCDLTRITLPTFILEKKSMLERVTNQLQFPEFLLQAHSEKDPLKRFLYVMKWYLAGWHIAPKAVKKPLNPVLGEYFTAYWDLPNKQQAYYISEQTSAAPPECAYFYMIPASSIRVDGVVIPKSRFLGNSSAAMMDGSTVLQFLDIKDGNGKPEKYVLTQPNVYVRGILFGKMRIELGDHMIIKSPNFQADIEFKTKGYVFGTYDAIEGTVKDYDGNAYYEISGKWNDVMYLKDLKQPRSSPKVFLDTHKESPLRPKVRPLSEQGEYESRKLWKKVTDALAVRNHPVATEEKFQIEDHQRQLAKKRIEDGVEFHPKLFRRSKPGEDLDYCIYKNIPVDEDPEKQIRSILQIAPILPGAQFIDKFFIPAFEKIKSQKKMIENEKQNPAKQ
Ist2-dependent (ER→PM)/(ER→O) NBD-PS transfer rate ratio R_(Ist2), three liposome populations, LER and LPM connected by CIst2[590–946], FRET (CIst2[590–946] [2]): ~1

B3: GST-Ist2[590–946] (domain or fragment, S. cerevisiae, UniProt P38250 590-946, looked up)
chain: SSHDDVANGIVPKHVVNVQNPPKQEVFEKIPSPEFNSNNEKELVQRKGSANEKLHQELGEKQPASSANGYEAHAATHANNDPSSLSSASSPSLSSSSSSSKTGVVKAVDNDTAGSAGKKPLATESTEKRNSLVKVPTVGSYGVAGATLPETIPTSKNYYLRFDEDGKSIRDAKSSAESSNATNNNTLGTESKLLPDGDAVDALSRKIDQIPKIAVTGGENNENTQAKDDAATKTPLIKDANIKPVVNAAVNDNQSKVSVATEQTKKTEVSTKNGPSRSISTKETKDSARPSNNNTTTTTTTDATQPHHHHHHHRHRDAGVKNVTNNSKTTESSSSSSAAKEKPKHKKGLLHKLKKKL
notes: also called Ist2 IDR; full-length Ist2 IDR; source: E. coli BL21-GOLD(DE3), purified (Glutathione Sepharose 4B, eluted with glutathione); not shown: GST, N-terminal, kept
binding result (Osh6(H157A/H158A)): binds

B4
binding result (Osh6): binds
